Assay results taken from doi:10.1101/2025.04.18.649563.
Where “and” joins values, the source holds several entries; their conditions need not be identical. Equal entries are not always repeated.

Molecular target: actin purified from muscle acetone powder (ground beef); polymerised to F-actin (Bos taurus (ground beef)) (UniProt P68138)
Assay: co-sedimentation

Lfat1 ABD [change], recombinant (from UniProt Q5ZVQ3 138-355) (domain or fragment)
Kd: 19.1 µM and 16.3 µM and 63.7 µM
